One block for each binder: values may come before it. Where no end group is shown, it is not given here.
Target: T1, antigenic peptide REEHIEGGHSNTDRPSR (human immunogenic peptide, residues 365-381 of IL4I1) coupled to BSA (human, also: coupled through Ahx spacer and Cys to BSA carrier, end not given here)
T1 peptide: REEHIEGGHSNTDRPSR
Experiment: ELISA screen against the antigenic peptide coupled to BSA

- binding result: binds
B1: anti-IL4I1 antibody A-3 IgG/λ (rabbit monoclonal, clone A-3) (antibody, V domains shown)
VH: QSLEESGGDLVKPEGSLTLTCTASGFSLSAGYFMCWVRQAPGKGLEWIGSIFSGSSGSTYYASWAKGRFTISKTSSTTVTLQMTSLTAADTAIYFCARGGVVDGRVAYDNSFDHWGPGTLVTVSS
VL: ELVLTQSPSVSAALGASAKLTCTLSSAHSTYTIDWYQQQPGESPRYLMQLKSDGTYTKGTGVPDRFSGSSSGADRYLIIPSVQADDEAGYYCGANYSGGYVFGGGTQLTVTR
notes: Rabbit IgG/lambda from a hybridoma; It was used as hybridoma supernatant (clone A) or as purified IgG (subclone A-3); also called IgG A-3; AbA-3

- binding result: binds
B2: anti-IL4I1 antibody D-5 IgG/λ (rabbit monoclonal, clone D-5, hybridoma CNCM I-5355) (antibody, V domains shown)
VH: QQQLVESGGDLVKPEGSLTLTCTASGFSLSAGYFICWIRQAPGKGLEWIGSVFSGSSGTTYYASWAKGRFTISKTSSTTVTLQMTSLTAADTAIYFCARGGVLGGRVAYDNSFDHWGPGTLVTVSS
VL: ELVLTQSPSVSAALGASAKLTCTLSSAHSTYTIEWYQQQPGESPRYLMQLKSDGSYTKGTGVPDRFSGSSSGADRYLIIFSVQADDEADYYCGANYSSGYVFGGGTQLTVT
notes: Rabbit IgG/lambda from a hybridoma; It was used as hybridoma supernatant (clone D) or as purified IgG (subclone D-5); also called IgG D-5; AbD-5
